Source: the supplement of paper PMC10567573

B1: NCK2 (parent)
chain: YVERKNSLKKGSLVKNLKDTLGLG
B2: NECAB1 (parent)
chain: FSPNSPQFNVSGPGLLEEDNQWMT

Variants of: B1
Assay: protein stability index of a GFP-peptide fusion (GPS, HEK-293T) (PSI 1-6); higher = more stable
Conditions: c terminus: a fixed tail appended
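Note: lentivirally expressed fusions sorted by FACS into six bins by GFP to DsRed ratio, PSI derived from sequencing read proportions per bin multiplied by bin number.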

Protein stability index: each site, then its substitutions
Y1: L 3.28 | A 3.59 | Q 4.01 | S 3.3 | C 3.41 | E 4.06 | F 1.81 | D 4.13 | V 3.41 | I 3.03 | T 3.65 | W 2.29 | K 3.86 | G 3.92 | M 3.64 | R 3.18 | P 3.8 | N 3.71 | H 4.01
E3: V 1.9 | D 1.89 | P 1.65 | Q 1.96 | L 2.07 | H 1.72 | N 2.04 | I 2.1 | A 1.66 | G 1.41 | R 2.52 | Y 1.63 | W 1.96 | M 2.11 | K 2.23 | C 1.83 | S 2.23 | T 1.78 | F 2.01
R4: E 2.42 | H 2.6 | F 1.52 | G 2.19 | A 2.23 | C 1.83 | D 2.67
V2: W 2.49 | C 2.47 | S 2.94 | K 3.67 | P 3.81 | N 3.59 | H 2.66 | D 3.38 | R 3.41 | Q 3.39 | M 2.81 | Y 3.01 | E 4.17 | F 2.44 | T 3.44 | A 3.09 | L 2.71 | G 3.19 | I 2.84

Variants of: B2
Assay: as above
Conditions: c terminus: a fixed tail appended

Protein stability index: each site, then its substitutions
W22: D 4.65 | S 4.03 | P 4.21 | E 4.42 | V 3.79 | K 3.54 | Q 4.03 | A 3.96 | I 3.67 | H 3.84 | L 3.71 | Y 3.49
P6: R 2.05 | L 2.51 | F 2.28 | V 2.56 | T 2.86 | D 2.82 | C 2.26 | K 2.5 | A 2.95 | N 2.56 | Y 1.92 | S 2.62 | M 2.03
N4: T 3.2 | P 3.53 | F 2.4 | A 3.25 | M 2.45 | C 2.26 | R 2.82 | Q 2.8 | E 3.59 | W 2.25
V10: G 2.92 | I 3.09 | N 3.68 | H 3.63 | C 2.42 | Y 2.89
P13: M 2.65 | C 2.49 | Y 2.75 | F 2.29 | T 3.32 | A 3.15 | D 3.46 | Q 3.12 | W 1.7 | R 2.79 | S 3.02 | I 3.27
N20: E 3.73 | V 2.58 | C 2.63 | Q 2.84 | T 3.19 | G 2.79 | F 2.71 | M 2.54 | D 3.86 | W 2.46 | L 2.27 | A 3.29 | K 2.54
E17: M 2.54 | A 2.4 | V 2.33 | N 2.33 | T 2.36 | I 2.53 | R 2.86 | H 2.72 | P 2.58 | Q 3.13 | D 2.74 | S 2.98
Q21: F 1.87 | G 2.54 | K 3.06 | P 2 | Y 2.29 | A 2.45 | T 2.41 | L 2.08
S5: W 2.27 | T 2.98 | Q 3.7 | R 2.78 | D 4.04 | N 3.03 | H 3.16 | C 3 | I 2.75 | V 2.75 | K 2.82 | E 3.82 | M 3.66 | A 2.72
N9: S 2.84 | V 2.09 | Y 3.54 | E 3.77 | A 2.35 | K 2.84 | L 2.12 | I 2.05 | D 3.67 | T 2.62 | P 3.06
M23: C 2.67 | W 2.35 | I 2.45 | F 2.44 | R 3.08 | Y 2.77 | G 3.66 | Q 3.43 | N 3.45
L15: N 3.27 | Y 3.05 | H 3.19 | V 3.23 | R 2.51 | S 3.3 | A 3.26 | I 2.98 | G 2.91 | T 3.25 | C 3.04 | K 2.97 | Q 3.06
G14: E 3.58 | D 3.73 | L 2.62 | W 1.96 | A 3.44 | T 2.52 | M 2.35 | V 2.89 | Y 2.22 | F 2.35 | I 2.29 | Q 2.74
L16: G 2.73 | K 2.94 | R 3.12 | M 2.66 | Q 3.54 | D 3.94 | T 3.53 | W 2.25 | F 2.42 | I 2.91 | E 4 | V 3.18 | C 3.03 | A 3.29 | P 3.52
Q7: H 2.94 | K 2.27 | C 2 | F 2.59 | Y 1.72 | R 2.07 | M 2.02 | L 1.45 | T 3.09 | A 1.92 | V 2.22 | N 2.89
G12: L 2.47 | I 2.42 | Q 3.04 | Y 2.14 | S 3.13 | W 1.74 | H 2.62 | D 3.13 | N 2.77
F1: T 4.11 | D 4.53 | K 4.43 | N 4.63 | M 4.7 | E 4.79 | H 4.23 | G 4.4 | I 4.33 | L 4.55 | A 4.01 | Q 4.7
D19: A 2.11 | I 2.55 | W 2.02 | Q 2.5 | G 2.33 | Y 2.44 | T 2.1 | F 2.12 | H 2.79 | L 2.3 | N 2.57 | S 2.33 | E 2.78
E18: G 2.02 | V 2.31 | L 2.03 | I 2.4 | K 3.2 | W 2.14 | D 2.91 | C 1.89 | Y 1.82 | Q 1.97 | P 1.84 | R 2.14
F8: I 3.26 | Y 3.43 | E 4.44 | P 3.47 | A 4.17 | L 3.04 | C 3.42 | S 4 | R 3.65 | H 3.77 | D 4.15 | G 3.83
S2: N 3.28 | L 3.37 | R 3.65 | D 4.21 | Y 3.49 | E 4.58 | A 1.79 | C 2.63
S11: M 2.16 | N 3.31 | D 3.73 | T 2.79 | Q 3.09 | I 2.9 | A 3.02 | F 2 | R 2.62 | P 3.19 | Y 1.95 | L 2.91
T24: W 1.69 | L 3 | G 3.01 | C 2.91 | V 2.36 | M 2.4 | P 2.69 | S 3.27 | H 2.99
P3: F 2.59 | V 2.88 | W 2.04 | K 3.11 | Q 3.26 | S 2.68 | H 3.17 | Y 2.62 | C 2.33 | A 3.26 | G 2.2
